Measured values: patent publication US20240400657A1 (MorphoSys, published 2024)

Legend:
[1] = target: T1, full-length human C3aR expressed on CHO Flp-In cells (human, UniProt Q16581 1-482); assay: FACS, CHO Flp-In cells expressing human C3aR, single IgG concentration
T1 construct: also called C3a anaphylatoxin chemotactic receptor
T1 sequence: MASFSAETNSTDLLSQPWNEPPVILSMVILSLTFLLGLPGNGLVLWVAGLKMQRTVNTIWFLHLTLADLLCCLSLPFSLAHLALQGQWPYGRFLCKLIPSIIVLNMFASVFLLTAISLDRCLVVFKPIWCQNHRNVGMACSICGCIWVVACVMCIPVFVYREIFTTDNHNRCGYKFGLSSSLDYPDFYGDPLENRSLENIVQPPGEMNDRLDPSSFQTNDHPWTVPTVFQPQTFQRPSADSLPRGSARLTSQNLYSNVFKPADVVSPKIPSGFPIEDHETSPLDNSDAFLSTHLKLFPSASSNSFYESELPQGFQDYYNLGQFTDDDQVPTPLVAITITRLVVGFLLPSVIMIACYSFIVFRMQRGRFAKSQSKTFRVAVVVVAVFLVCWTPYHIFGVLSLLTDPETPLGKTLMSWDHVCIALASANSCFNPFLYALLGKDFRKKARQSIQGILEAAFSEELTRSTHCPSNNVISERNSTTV

[2] = target: T2, human C5aR_NT-bio peptide (human, biotin tag (position not given)); assay: SPR (Biacore T200), IgG captured on anti-human-Fc, peptide as analyte, 1:1 fit, monovalent
T2 construct: Chemically synthesized linear peptide (Genscript); also called human C5aR N-terminal peptide; human C5aR peptide
T2 peptide: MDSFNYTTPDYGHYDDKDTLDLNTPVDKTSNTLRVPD

[3] = target: T3, Human FcRn p51 [1-297]/AviHis/p14 biotinylated (human, UniProt P55899 24-298; P16213 21-119); assay: BLI (Octet HTX), biotinylated FcRn on SA sensors, IgG titrated, steady state fit, apparent KD, pH 6.0; * deviation from fit model; pH 6.0
T3 construct: Heterodimer of two polypeptides; UniProt P55899 (p51), P61769 (p14) printed
From the text: 0.5 nm of biotinylated human, cynomolgus, mouse and rat FcRn were captured on streptavidin (SA) sensors (FortéBIO, Pall Life Sciences). […] All sensorgrams were fitted using Data Analysis Software 10.0 (FortéBIO, Pall Life Sciences) to determine the apparent affinity and the data was fitted with a steady state model.

Lectin = assay: Protein Panel Profiling (3P), MSD ECL, coated antigen, IgG 10 nM
Method: (§1) 32 different proteins and controls were coated on two 384-well MSD standard plates at a concentration of 1.0 μg/mL at 4° C. over night. The coating solution was discarded and plates were blocked with 50 μL 3% (w/v) BSA in PBS for one hour at RT on a microtiter plate shaker (˜500 rpm) followed by three washing steps with 50 μL washing buffer (PBS with 0.05% (v/v) Tween 20). IgG samples were diluted to 100 nM and 10 nM in assay buffer (PBS with 0.5% (w/v) BSA, 0.05% (v/v) Tween 20). As controls, isotype control antibody MOR03207 (IgG1f_AEASS) and assay buffer were used. Samples and controls were added at 30 μL/well and incubated for three hours at RT on a microtiter plate shaker. The plates were washed three times and 30 μL detection antibody (ECL-labeled anti-human Fab) were added per well and incubated for one hour on a microtiter plate shaker (˜500 rpm). After washing the MSD plate and adding 35 μL/well MSD Read Buffer T with surfactant, electro-chemiluminescence signals were detected using a SECTOR® Imager S600 instrument (Meso Scale Diagnostics).
(§2) For evaluation, binding signals of the antibody sample to a certain protein were divided by the respective binding signals of the reference antibody MOR03207 resulting in a binding ratio (BR). The cumulative binding ratio (CBR) of all proteins except the controls (25 in total) was then calculated: CBR up to 150 indicates an IgG without detectable unspecific binding. Values above 150 indicates an IgG with increased unspecific binding compared to the reference antibody MOR03207.

[4] = target: T4, Cell surface rec. 2_Fc (h); assay: as above
T4 construct: identity not disclosed
Method: as §1, §2

[5] = target: T5, Cell surface rec. 1_Lys (h); assay: as above
T5 construct: identity not disclosed
Method: as §1, §2

anti-human Fc = target: T6, anti-human Fc; assay: as above
T6 construct: control of the 3P panel; it captures human IgG as such, so a ratio of 1 means a signal equal to that of MOR03207
Method: as §1, §2

Trypsinogen = assay: as above
Method: as §1, §2

[6] = target: T7, full length rat C5aR stably expressed on CHO Flp-In cells (rat (Rattus norvegicus), UniProt P97520 1-352); assay: FACS, CHO Flp-In cells expressing rat C5aR, single IgG concentration
T7 sequence: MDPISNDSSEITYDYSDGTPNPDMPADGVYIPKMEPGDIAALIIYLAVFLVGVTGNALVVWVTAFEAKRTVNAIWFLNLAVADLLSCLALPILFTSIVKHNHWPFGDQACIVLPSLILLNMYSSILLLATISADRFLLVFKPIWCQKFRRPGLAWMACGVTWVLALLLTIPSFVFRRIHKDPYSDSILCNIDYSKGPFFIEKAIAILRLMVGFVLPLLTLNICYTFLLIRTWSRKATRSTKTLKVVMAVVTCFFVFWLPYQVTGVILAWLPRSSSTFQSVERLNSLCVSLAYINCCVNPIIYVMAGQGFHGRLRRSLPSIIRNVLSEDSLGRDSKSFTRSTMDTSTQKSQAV

Human C1q = target: T8, Human C1q (human, UniProt P02745 23-245; P02746 28-253; P02747 29-245); assay: BLI (Octet), IgG captured via anti-hu Fab CH1 kappa/lambda on SA sensors, C1q titrated
T8 construct: mature; Plasma-derived complex; also called C1q protein; huC1q
From the text: 2.0 nm of IgGs diluted in Octet® buffer were captured onto anti-hu Fab CH1 kappa/lambda (BAC) immobilised onto streptavidin (SA) sensors (FortéBIO, Pall Life Sciences). […] All sensorgrams were fitted using Data Analysis Software 9 (FortéBIO, Pall Life Sciences) to determine the apparent affinity. The data was fitted with a steady state model.

[7] = target: T9, HIS6-human C5aR (D/K variant)-HV1B1-GAG (human); assay: ELISA on coated VLPs, IgG titration (N = 2)
T9 construct: the VLPs were coated for ELISA; also called huC5aR (D/K); human C5aR D/K variant on VLPs

[8] = target: T10, HIS6-human C5aR (N/N variant)-HV1B1-GAG (human); assay: ELISA on coated VLPs, IgG titration (N = 2)
T10 construct: also called huC5aR (N/N); human C5aR N/N variant on VLPs

[9] = target: T11, cynomolgus C5aR_NT-bio peptide (cynomolgus monkey, biotin tag (position not given)); assay: BLI (Octet HTX), biotinylated peptide on SA sensors, IgG as analyte, 1:1 fit, apparent (bivalent); fast koff
T11 construct: Chemically synthesized linear peptide (Genscript); also called cynomolgus C5aR N-terminal peptide; cynomolgus C5aR peptide
T11 peptide: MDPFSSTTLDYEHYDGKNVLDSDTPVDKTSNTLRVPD

[10] = target: T12, C5aR expressed on purified human neutrophils (human, UniProt P21730 1-350); assay: FACS on purified human neutrophils, IgG titration
T12 construct: whole, on cells; Used here for all assays on primary human cells (purified neutrophils, granulocytes and monocytes in whole blood, monocyte-derived macrophages); also called human C5aR expressed endogenously; C5aR on human granulocytes, monocytes and macrophages
T12 sequence (looked up): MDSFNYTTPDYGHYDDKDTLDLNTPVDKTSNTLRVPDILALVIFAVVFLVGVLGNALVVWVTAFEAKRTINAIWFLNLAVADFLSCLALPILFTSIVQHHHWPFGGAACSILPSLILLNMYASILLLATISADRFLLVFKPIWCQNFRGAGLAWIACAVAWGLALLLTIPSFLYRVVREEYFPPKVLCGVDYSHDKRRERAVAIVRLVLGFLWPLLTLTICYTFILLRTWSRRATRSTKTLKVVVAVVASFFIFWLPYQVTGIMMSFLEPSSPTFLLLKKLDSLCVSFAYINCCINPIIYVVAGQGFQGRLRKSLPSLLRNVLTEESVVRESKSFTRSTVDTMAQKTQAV
Method: Neutrophils were purified from EDTA-whole blood samples using a MACSexpress® Neutrophil Isolation Cocktail from Miltenyi Biotec. Briefly, using this kit, cells are isolated using magnetic labeling and negative magnetic separation. […] Measurements were done at the FACS Array device. FACS data were evaluated using FlowJo™, entered into GraphPad® Prism (v4.0) and fitted to the sigmoidal dose-response curve using non-linear regression to calculate the EC50.

T8 sequence (P02745 23-245, chain 1 of 3): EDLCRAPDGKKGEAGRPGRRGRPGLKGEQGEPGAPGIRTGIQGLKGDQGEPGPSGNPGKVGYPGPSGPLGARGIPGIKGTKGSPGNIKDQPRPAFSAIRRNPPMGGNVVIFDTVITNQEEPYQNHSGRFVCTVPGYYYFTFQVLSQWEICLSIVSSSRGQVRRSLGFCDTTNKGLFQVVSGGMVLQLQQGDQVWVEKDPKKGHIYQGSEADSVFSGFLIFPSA
T8 sequence (P02746 28-253, chain 2 of 3): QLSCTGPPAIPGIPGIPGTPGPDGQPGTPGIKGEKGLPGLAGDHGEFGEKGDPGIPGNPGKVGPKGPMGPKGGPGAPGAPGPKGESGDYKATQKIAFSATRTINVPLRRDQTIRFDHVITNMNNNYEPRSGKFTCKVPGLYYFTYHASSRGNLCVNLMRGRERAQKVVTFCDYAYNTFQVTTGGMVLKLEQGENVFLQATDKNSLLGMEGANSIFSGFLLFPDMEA
T8 sequence (P02747 29-245, chain 3 of 3): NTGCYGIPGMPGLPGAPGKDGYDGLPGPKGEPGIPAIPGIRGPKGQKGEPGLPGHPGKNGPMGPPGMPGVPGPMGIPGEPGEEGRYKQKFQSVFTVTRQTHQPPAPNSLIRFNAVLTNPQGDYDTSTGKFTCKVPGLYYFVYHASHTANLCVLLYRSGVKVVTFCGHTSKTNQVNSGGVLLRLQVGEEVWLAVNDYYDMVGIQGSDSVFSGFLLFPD
T3 sequence (P55899 other isoform, or with tags, fused parts or gaps limits assumed, chain 1 of 2): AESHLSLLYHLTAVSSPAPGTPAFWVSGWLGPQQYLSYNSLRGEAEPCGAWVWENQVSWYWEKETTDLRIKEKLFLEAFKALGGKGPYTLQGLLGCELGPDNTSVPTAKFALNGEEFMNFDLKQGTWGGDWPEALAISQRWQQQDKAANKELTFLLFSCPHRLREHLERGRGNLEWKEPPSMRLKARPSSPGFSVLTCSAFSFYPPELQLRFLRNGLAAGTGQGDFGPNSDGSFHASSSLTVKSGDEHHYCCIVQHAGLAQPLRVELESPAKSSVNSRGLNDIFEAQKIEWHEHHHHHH
T3 sequence (P16213 21-119 limits assumed, chain 2 of 2): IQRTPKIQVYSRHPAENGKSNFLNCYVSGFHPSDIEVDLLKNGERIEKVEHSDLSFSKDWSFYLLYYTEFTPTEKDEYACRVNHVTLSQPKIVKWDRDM

B1: MAB #2 (antibody, human IgG1, lambda)
heavy: EVQLVESGGGLVKPGGSLRLSCAASGFTFSSYAMHWVRQAPGKGLEWVGRIKSVAQGGTTDYAAHVKGRFTISRDDSKNTLYLQMNSLKTEDTAVYYCARVSHSTFDVWGQGTLVTVSSASTKGPSVFPLAPSSKSTSGGTAALGCLVKDYFPEPVTVSWNSGALTSGVHTFPAVLQSSGLYSLSSVVTVPSSSLGTQTYICNVNHKPSNTKVDKRVEPKSCDKTHTCPPCPAPEAEGAPSVFLFPPKPKDTLMISRTPEVTCVVVDVSHEDPEVKFNWYVDGVEVHNAKTKPREEQYNSTYRVVSVLTVLHQDWLNGKEYKCKVSNKALPSSIEKTISKAKGQPREPQVYTLPPSREEMTKNQVSLTCLVKGFYPSDIAVEWESNGQPENNYKTTPPVLDSDGSFFLYSKLTVDKSRWQQGNVFSCSVMHEALHNHYTQKSLSLSPGK
light: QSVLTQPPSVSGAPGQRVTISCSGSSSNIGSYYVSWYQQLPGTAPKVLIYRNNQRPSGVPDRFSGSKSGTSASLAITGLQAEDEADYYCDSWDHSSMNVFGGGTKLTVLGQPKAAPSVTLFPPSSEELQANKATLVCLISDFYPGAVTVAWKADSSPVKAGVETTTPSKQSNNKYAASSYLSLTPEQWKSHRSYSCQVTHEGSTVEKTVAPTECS
notes: lambda 1 light chain
B1 was tested, and the binding result [1] was “no binding (tested: 300 nM)”, the Kd [2] was 29 nM and the koff [2] was 0.00127 s⁻¹. For the same binder, the kon [2] was 43300 M⁻¹ s⁻¹, the Kd [3] was 36 nM and the “binding ratio (signal / signal of MOR03207)” value (Lectin) was 1. The “binding ratio (signal / signal of MOR03207)” value [4] was 1, the “binding ratio (signal / signal of MOR03207)” value [5] was 1 and the “binding ratio (signal / signal of MOR03207)” value (anti-human Fc) was 1. For the same binder, the “binding ratio (signal / signal of MOR03207)” value (Trypsinogen) was 1, the binding result [6] was “no binding (tested: 300 nM)” and the binding result (Human C1q) was “no binding (tested: 500 nM (highest C1q concentration))”. For the same binder, the EC50 [7] was 0.5 nM, the EC50 [8] was 0.5 nM and the Kd [9] was 140 nM. The koff [9] was 0.0189 s⁻¹, the kon [9] was 138000 M⁻¹ s⁻¹ and the EC50 [10] was 5.4 nM.

B2: MAB #1 (antibody, human IgG1, lambda)
heavy: EVQLVESGGGLVKPGGSLRLSCAASGFTFSSYAMHWVRQAPGKGLEWVGRIKSKAQGGTTDYAAHVKGRFTISRDDSKNTLYLQMNSLKTEDTAVYYCARVSFSTFDVWGQGTLVTVSSASTKGPSVFPLAPSSKSTSGGTAALGCLVKDYFPEPVTVSWNSGALTSGVHTFPAVLQSSGLYSLSSVVTVPSSSLGTQTYICNVNHKPSNTKVDKRVEPKSCDKTHTCPPCPAPEAEGAPSVFLFPPKPKDTLMISRTPEVTCVVVDVSHEDPEVKFNWYVDGVEVHNAKTKPREEQYNSTYRVVSVLTVLHQDWLNGKEYKCKVSNKALPSSIEKTISKAKGQPREPQVYTLPPSREEMTKNQVSLTCLVKGFYPSDIAVEWESNGQPENNYKTTPPVLDSDGSFFLYSKLTVDKSRWQQGNVFSCSVMHEALHNHYTQKSLSLSPGK
light: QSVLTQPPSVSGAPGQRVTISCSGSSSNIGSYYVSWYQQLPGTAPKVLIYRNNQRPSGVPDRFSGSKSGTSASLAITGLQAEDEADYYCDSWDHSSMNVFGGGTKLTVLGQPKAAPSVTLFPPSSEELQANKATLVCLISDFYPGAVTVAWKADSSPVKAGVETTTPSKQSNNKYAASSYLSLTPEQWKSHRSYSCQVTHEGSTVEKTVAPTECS
notes: lambda 1 light chain, VH3-15 framework
B2 was tested, and the binding result [1] was “no binding (tested: 300 nM)”, the Kd [2] was 36 nM and the koff [2] was 0.00179 s⁻¹. For the same binder, the kon [2] was 50100 M⁻¹ s⁻¹, the Kd [3] was 9 nM and the “binding ratio (signal / signal of MOR03207)” value (Lectin) was 1. The “binding ratio (signal / signal of MOR03207)” value [4] was 1, the “binding ratio (signal / signal of MOR03207)” value [5] was 1 and the “binding ratio (signal / signal of MOR03207)” value (anti-human Fc) was 1. For the same binder, the “binding ratio (signal / signal of MOR03207)” value (Trypsinogen) was 1, the binding result [6] was “no binding (tested: 300 nM)” and the binding result (Human C1q) was “no binding (tested: 500 nM (highest C1q concentration))”. For the same binder, the EC50 [7] was 0.5 nM, the EC50 [8] was 0.5 nM and the Kd [9] was 63 nM. For the same binder, the koff [9] was 0.0108 s⁻¹, the kon [9] was 171000 M⁻¹ s⁻¹ and the EC50 [10] was 6 nM.
